Tests used:
[1] = biological target: endogenous rat PP1γ (rat (endogenous in primary hippocampal neurons)) (UniProt P63088); experiment: proximity ligation; PLA in fixed primary rat hippocampal neurons with Tau7 and a PP1γ-specific antibody; puncta per area of Tau12 staining; n = 3; untransduced neurons for endogenous tau; parameters: unit not given here
[2] = biological target: endogenous rat PP1 (detected with an antibody that recognizes all PP1 isoforms) (rat (endogenous in primary hippocampal neurons)) (UniProt P62138); experiment: proximity ligation; PLA in fixed primary rat hippocampal neurons (DIV 8) with Tau7 and a pan-PP1 antibody; puncta per area of Tau12 (human tau) staining; n = 3; untransduced neurons for endogenous tau; parameters: unit not given here
Chain of UniProt P62138 (P62138 whole entry, canonical isoform): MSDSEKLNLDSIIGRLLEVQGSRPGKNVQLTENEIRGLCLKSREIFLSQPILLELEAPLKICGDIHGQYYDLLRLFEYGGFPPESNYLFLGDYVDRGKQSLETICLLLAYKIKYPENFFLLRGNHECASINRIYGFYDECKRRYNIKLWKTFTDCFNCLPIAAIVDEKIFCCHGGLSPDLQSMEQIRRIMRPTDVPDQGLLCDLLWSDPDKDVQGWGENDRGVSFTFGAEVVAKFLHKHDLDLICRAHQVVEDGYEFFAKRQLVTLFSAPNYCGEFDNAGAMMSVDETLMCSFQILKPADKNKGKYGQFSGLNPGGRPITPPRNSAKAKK

Chain of UniProt P63088 (P63088 whole entry, canonical isoform): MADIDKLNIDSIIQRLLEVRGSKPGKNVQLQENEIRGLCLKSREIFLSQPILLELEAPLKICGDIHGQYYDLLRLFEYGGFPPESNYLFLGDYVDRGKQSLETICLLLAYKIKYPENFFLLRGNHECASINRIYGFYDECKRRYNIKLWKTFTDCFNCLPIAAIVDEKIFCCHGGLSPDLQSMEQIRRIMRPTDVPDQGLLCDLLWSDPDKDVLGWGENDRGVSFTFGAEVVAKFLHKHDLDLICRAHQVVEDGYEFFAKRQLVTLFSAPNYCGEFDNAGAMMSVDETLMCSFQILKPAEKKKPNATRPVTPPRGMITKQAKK

| Substance | PLA puncta per area of Tau12 staining [1] | PLA puncta per area of Tau12 staining [2] |
| --- | --- | --- |
| P301L mutant human tau (C-terminally FLAG-tagged) expressed by lentivirus in rat hippocampal neurons (natural protein) | 28 | 67.3 |
| R5L mutant human tau (C-terminally FLAG-tagged) expressed by lentivirus in rat hippocampal neurons (natural protein) | 16.2 | 31.3 |
| wild-type human tau (C-terminally FLAG-tagged) expressed by lentivirus in rat hippocampal neurons (natural protein) | 11.3 | 23.1 |

From article PMC8580143
